Data on 1 molecule can be found in US20150266963A1 (ARGEN X B V, published 2015).

Like-named read-outs stand apart in the source and are kept apart here.

Experiment [1] has as its target T1, recombinant human CD70 (Flag-TNC-CD70) (human, UniProt P32970 39-193).
T1 construct: extracellular domain; Captured by anti-Flag mAb in ELISA; as 'recombinant human CD70' immobilised on Biacore CM5 chips; TNC is for trimerisation; also called recombinant CD70; human recombinant CD70; not shown: Flag tag and TNC trimerisation domain
T1 sequence (looked up): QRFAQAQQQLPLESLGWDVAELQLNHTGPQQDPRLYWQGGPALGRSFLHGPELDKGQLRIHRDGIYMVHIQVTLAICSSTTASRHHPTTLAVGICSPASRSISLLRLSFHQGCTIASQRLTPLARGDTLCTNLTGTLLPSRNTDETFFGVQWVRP
The experiment is described as follows: inhibition ELISA; Flag-TNC-CD70 captured by anti-Flag mAb; competitor CD27-Fc. An outline of the steps:
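Flag-TNC-CD70 captured by anti-Flag mAb, then incubated with CD27-Fc with or without titrated Fabs (periplasmic extracts) or chimeric mAbs. Bound CD27-Fc detected via biotinylated anti-CD27 mAb and strep-HRP, and blocking potency expressed as IC50.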
On the technique in general: In an ELISA, binding on a coated surface is turned into a signal by an enzyme label.

Experiment [2] has as its target T2, rhesus recombinant CD70 (FLAG-TNC-rhesus CD70) (rhesus).
T2 construct: also called rhesus Flag-TNC-CD70
The experiment is described as follows: inhibition ELISA; FLAG-TNC-rhesus CD70; competitor CD27-Fc. The text has this: In this assay, Flag-TNC-CD70 is captured by an anti-Flag mAb and binding of CD27-Fc is detected via a biotinylated anti-CD27 mAb and strep-HRP in the absence or presence of CD70 Fabs (FIGS. 2 and 3) or CD70 mAbs (FIG. 4). In FIG. 2B it can be seen that 27B3, which has an identical VH as 9D1, but contains a somewhat different light chain, seems to block binding of CD27 to CD70 more efficiently, which was in line with the better off rate of this Fab as measured on Biacore (data not shown). Table 3 indicates the blocking potency (expressed as IC50) for the various llama-human chimeric mAbs tested in the CD70 inhibition ELISA. […] FIG. 3 is a composite of an experiment testing llama CD70 Fabs for blocking activity (in the inhibition ELISA, see white bars) and for CD70 binding (binding ELISA, black bars). For the binding ELISA, Flag-TNC-CD70 is captured by an anti-Flag mAb and binding of the Fabs is detected using an anti-myc-HRP mAb, which recognizes the MYC tag fused to the C-terminus of the Fd fragment. For comparison purposes, known monoclonal antibodies to CD70 (SGN70 described in US 2010/0129362 A1, clone 1F6; and MDX69A7 described in WO2008/074004 FIGS. 5A and 5B) were tested in parallel. […] Of interest is clone 59D10, which as Fab has no blocking activity, but when converted into a chimeric IgG was antagonistic (see Table 3). […]

Experiment [3] has as its target T3, human CD70 expressed on the surface of cells (human, UniProt P32970 1-193).
T3 sequence (looked up): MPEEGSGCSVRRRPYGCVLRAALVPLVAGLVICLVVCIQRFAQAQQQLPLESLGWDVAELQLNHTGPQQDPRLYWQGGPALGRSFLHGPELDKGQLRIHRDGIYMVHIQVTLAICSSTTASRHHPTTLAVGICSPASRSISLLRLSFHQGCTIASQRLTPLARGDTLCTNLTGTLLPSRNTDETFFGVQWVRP
The experiment is described as follows: cell-based or functional assay.

Experiment [4] concerns the target T3, human CD70 expressed on the surface of …. The experiment in a line: cell-based or functional assay. The source holds these as a separate data set.
Experiment [5] has the same target. The experiment is described as follows: cell-based or functional assay. This is another data set of the same source.
Experiment [6] addresses T1, recombinant human CD70 (Flag-TNC-CD70). The experiment in a line: inhibition ELISA; Flag-TNC-CD70 captured by anti-Flag mAb; competitor CD27-Fc. On the procedure:
From selected phage transfected into TG1, individual colonies were picked randomly for growth in 96 well plates. After IPTG induction according to standard protocols periplasmic fractions (penis) containing Fabs were prepared. […] In this assay, Flag-TNC-CD70 is captured by an anti-Flag mAb and binding of CD27-Fc is detected via a biotinylated anti-CD27 mAb and strep-HRP in the absence or presence of CD70 Fabs (FIGS. 2 and 3) or CD70 mAbs (FIG. 4). In FIG. 2B it can be seen that 27B3, which has an identical VH as 9D1, but contains a somewhat different light chain, seems to block binding of CD27 to CD70 more efficiently, which was in line with the better off rate of this Fab as measured on Biacore (data not shown). Table 3 indicates the blocking potency (expressed as IC50) for the various llama-human chimeric mAbs tested in the CD70 inhibition ELISA. […] FIG. 3 is a composite of an experiment testing llama CD70 Fabs for blocking activity (in the inhibition ELISA, see white bars) and for CD70 binding (binding ELISA, black bars). For the binding ELISA, Flag-TNC-CD70 is captured by an anti-Flag mAb and binding of the Fabs is detected using an anti-myc-HRP mAb, which recognizes the MYC tag fused to the C-terminus of the Fd fragment. For comparison purposes, known monoclonal antibodies to CD70 (SGN70 described in US 2010/0129362 A1, clone 1F6; and MDX69A7 described in WO2008/074004 FIGS. 5A and 5B) were tested in parallel. […] Of interest is clone 59D10, which as Fab has no blocking activity, but when converted into a chimeric IgG was antagonistic (see Table 3). Amino acid sequences of the VH and VL domains of binding and blocking llama-derived Fab clones are shown elsewhere herein (Tables 6-9).
This is another data set of the same source.

Experiment [7] deals with T3, human CD70 expressed on the surface of …. The experiment is described as follows: flow cytometry on 786-O cells; anti-human Fc-FITC. As for the experimental part:
Fluorescence of 10,000 cells/condition was measured using a flow cytometer and the median fluorescence was plotted.

B1: 27B3 chimeric llama-human mAb (antibody, human IgG1, V domains shown)
VH: EVQLVESGGGLVQPGGSLRLSCAASGFTFSVYYMNWVRQAPGKGLEWVSDINNEGGTTYYADSVKGRFTISRDNAKNTLTLQMNSLKPEDTALYYCVRDAGYSNHVPIFDSWGQGTQVIVAS
VL: QAVVTQEPSLTVSPGGTVTLTCGLKSGSVTSTNFPTWYQQTPGQAPRLLIYNTNTRHSGVPSRFSGSISENKAALTITGAQPEDEAEYFCALFISNPSVEFGGGTQLTVLS
notes: also called SIMPLE antibody 27B3; mAb 27B3
Usually IC50 stands for the concentration that gives 50% inhibition. Broadly, the EC50 is the concentration giving half of the maximal effect. A low value points to higher potency in that assay. Consider B1, for which the IC50 in experiment [1] was 0.038 µg/mL; in experiment [2], 0.15 µg/mL; in experiment [6], 250 pM. Also, in experiment [3], the “Raji co-culture assay IC50 relative to 27B3” value was 1 fold of 27B3. Besides, the “IC50 (ng/ml), IL-8 secretion in Raji / HT1080-CD27 co-culture assay” value in experiment [4] came out at 5 ng/mL. In experiment [5], the “IC50, IL-8 secretion in Raji / HT1080-CD27 co-culture assay” value was 33 pM. For the same molecule, in experiment [7], the EC50 worked out at 240 pM.
